Changes are numbered by the printed parent chain.
B1: C902 (antibody, V domains shown)
VH: EVQLVQSGAEVKKPGESLRISCKGSGYSFHTYWIHWVRQMPGKGLEWMGKIDPSDSYTNYSPSFQGHVTFSADRSISTAYLQWSSLKASDTATYYCARLSWSPPTRTTDEKNWFDPWGQGTLVTVSS
VL: DIQLTQSPSFLAASAGDRVTITCRASQGISSYLAWYQQKPGKAPKVLIYAASTLQSGVPSRFSGSGSGTEFTLTISSLQPEDCATYYCQQFNSDPLTFGGGTKVEIK
B2: C889 (antibody, V domains shown)
VH: EVQLVESGGGLVQPGGSLRLSCAVSGFTVSSNYMTWVRQAPGKGLEWVSLIYSGTSAFYADSVKGRFTISRDNSKNTLYLQMSSLRVNDTAIYYCARDLRKDDGYSYGAFDYWGQGTLVTVSS
VL: QSALTQPASVSGSPGQSITISCSGTSSDVGAHNYVSWYQQYPGKAPKLMIFDVTDRPSGVSNRFSGSKSGNTASLTISGLQAEDEADYYCTSYTTNRSWVFGGGTKVTVL
B3: C891 (antibody, V domains shown)
VH: EVQLVESGGGLVKPGGSLRLSCAVSGFTFSNVWMSWVRQAPGKGLEWVGRIKSKTDGGTTDYAAPVKGRFTISRDDSKNTLYLQMNSLKTEDTAVYYCTSQLWLRGPGDYWGQGTLVTVSS
VL: NFMLTQPHSVSESPGKTVTISCTGSSGSIASNYVQWYQQRPGSAPTTVIYEDNQRPSGVPDRFSGSIDSSSNSASLTISGLKTEDEADYYCQSYDSSLNWVFGGGTKLTVL
B4: C901 (antibody, V domains shown)
VH: QVQLVESGGGVVQPGRSLRIACGASGFTFSTYDMHWVRQAPVKGLEWVAVISRDGSGKFYADSVKGRFTISRDNSKKTLYLQMDSLRPEDTAMYYCARDFESRTWDPPKYYYALDVWGQGTTVTVSS
VL: DIQMTQSPSSLSASVGDRVTITCRASQSISTYLNWYQQKPGKAPSLLIYAASSLYSGVPSRFSGSGSGTDFSLTISSLQPEDFATYYCQQTYTTPTWTFGQGTKVEIK
B5: C980 (antibody, V domains shown)
VH: QVQLVQSGAEVKKPGSSVKVSCEASGGTFSSDSINWVRQAPGQGLEWMGRIIPIFGATNYAQKFQGRVTITADKSTDTVYMEVSSLTSEDTAVYYCARGGIAVGGWWFDPWGQGTLVTVSS
VL: EIVMTQSPATLSVSPGERATLSCRASESVSSKLAWYQQKPGQAPRLLIYGASTRATGISARFSGSGSGTDFTLTISSLESEDFAVYYCQQYNHWPPNTFGQGTKLEIK
B6: C890 (antibody, V domains shown)
VH: QVQLVQSGAEVKKPGSSVKASCKASGGTFSTYTISWVRQAPGHGLEWMGRIIPIFGTTKYAQKFQGRVTITADESTTTAYLELSSLRSEDTAVYYCTINTQWDLVPRWGQGTLVTVSS
VL: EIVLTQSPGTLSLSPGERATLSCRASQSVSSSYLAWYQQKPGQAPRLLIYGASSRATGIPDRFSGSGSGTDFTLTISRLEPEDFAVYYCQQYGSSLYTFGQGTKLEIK
B7: C887 (antibody, V domains shown)
VH: EVQLVESGGDLVQPGGSLRLSCAASGFTFTTYSMSWVRQAPGKGLEWISYINSGSANIHYADSVKGRFTVSRDNAKNSLYLQMNSLRDEDTAVYYCARGDCLSSSCYSLDYWGQGALVTVSS
VL: DIQMTQSPSSLSASVGDRVTITCRASQSITSYLSWYLQKPGEAPKLLIYAASILQSGVPSRFGGNGSGTDFTLTISSLQPEDFATFYCQQTYRSPLTFGGGTKVEIK
B8: C892 (antibody, V domains shown)
VH: EVQLVESGGGLVKPGGSLKVSCTASGFTFTDAWMSWVRQAPGKGLEWVGRIKSRAYGGTTDYGAPVQGRFTISRDDSINTLYLQMNSLTAEDTAVYYCTSQLWLRGPGDYWGQGTLVTVSS
VL: B3 VL with Q35H, S43G, S69I, A87G, S97G, L98V
B9: C843 (antibody, V domains shown)
VH: QVQLVESGGGVVQPGRSLRLSCAASGFTFSRYAMHWVRQAPGKGLEWVAVISYDGSNKYYATSLKGRCTISRDNSKNTLYLQMNSLRAEDTAVYFCAKQIGEYCSGGNCYQGSLDYWGQGTLVTVSS
VL: DIQMTQSPSSLSASVGDRVTITCQASQDISNYLNWYQQKPGKAPKLLIYDASDLETGVPSTFSGSGSGTDFTLTISSLQPEDFATYYCQQYDIVPFTFGPGTKVDIK
B10: C844 (antibody, V domains shown)
VH: EVQLVESGGGLVKPGGSLRLSCVATGFSFSDAWMNWVRQAPGKGLEWVGRIRSEIADGTTDYAAPVKGRFTISRDDARNTLYLQMNSLEIEDTAVYYCTTGVVVVVSSSPDDAFDVWGQGTMVTVSS
VL: DIQMTQSPSSLSASVGDRVTITCRASQSIGHYLNWYQQKPGKAPKLLIYAASSLQSGVPSRFSGSGSGAGFTLTVNGLQPEDLATYYCQQYYTTPPTFGQGTKVEIK
B11: C845 (antibody, V domains shown)
VH: QVQLQESGPGLVKPSQTLSLTCTVSGASISSGEYYWSWVRQPPGKGLEWVGYIYYSGSTYYNPSLKSRVTISVDTSKNHFSLKLKSLTAADTAVYFCATGGLSAFGELFPHDKWGQGTLVTVSS
VL: EIVLTQSPATLSLSPGERATLSCRASQSVGSDLAWYQQKPGQAPRLLIYDTSNRATGIPARFSGSGSGTDFTLTISSLDPADFAVYYCQQRTNWLFSFGPGTKVDIK
B12: C881 (antibody, V domains shown)
VH: EVQLVESGGGLIQPGGSLRLSCAVSGVAVSTNYMSWVRQAPGQGLEWVSTIYSGDTTYYSDSVKGRFTISRDNSKNTFYLQMNSLRVPDTAVYYCARLGGVFNGFNGSFDYWGQGTLVTVS
VL: QSALTQPASVSGSPGQSITISCIGTSSDFENYNLVSWYQQHPGKAPKVMIYEDTKRPSGVSNRFSGSKSANTASLTISGLQAEDEAEYYCCSYAGASTWVFGGGTRVTVV
B13: C970 (antibody, V domains shown)
VH: QVQLQESGPGLVKPSETLSLTCTVSGDSINKYYWGWIRQPPGKGLEWIGYIYYSGTTNYNPSLKSRVTISVDTSKTQFSLKLSSVTAADTAVYYCARLLSTEWSFNWFDPWGQGTLVTVSS
VL: SYELTQPPSVSVSPGQTASITCSGDTLGDKYACWYQQKPGQSPLLVIYQNNKRPSGIPERFSGSNSGNTATLTISGTQAMDEADYYCQAWDSSTAYVFGTGTKVTVL
B14: C566 (antibody, V domains shown)
VH: QVQLQESGPGLVKSSQTLSLNCSVFGASISSGGYYWTWIRQHPGKGLEWIGYIHYRGTYYNPSLKSRVTMSVDTSKNQFSLKVRSVSAADTAIYYCARAIVVVTLNWFDLWGQGTLVTVSS
VL: NFMLTQPHSVSESPGKTVTISCSGSGGSIASNYVQWYQQRPGSAPTAVIYEDNQRPSGVPDRFSGSIDSSSNSASLTISGLKTEDEADYYCQSYDTSNPVIFGGGTKLTV
B15: C101 (antibody, V domains shown)
VH: QVQLVESGGGLIQPGGSLRLSCAASGFIVSSNYMSWVRQAPGKGLEWVSVIYSGGSTFYTDSVKGRFTISRDNSKNTLYLQMNSLRAEDTAVYYCVRDYGDFYFDYWGQGTLVTVSS
VL: EIVLTQSPGTLSLSPGERATLSCRASQSVSSSYLAWYQQKPGQAPRLLIYGASSRATGIPDRFSGGGSETDFTLTISRLEPEDCAVYYCQQYGSSPRTFGQGTKVEIK
B16: C960 (antibody, V domains shown)
VH: QVQLVESGGGVVQPGRSLTLSCTASGFTFNRFAMFWVRQAPGKGLEWVAVISFDGSYEHYAESVKGRFAIFRDNPKNTLYLQMNSLRAEDTAVYYCAKSPINYCANGVCYPDSWGQGTLVTVSS
VL: B3 VL with S31N, Y50F, N53T, T77N, T83P, Y94F, S96V, S97N, L98S, N99R
B17: C908 (antibody, V domains shown)
VH: EVQLVQSGAEVKKPGESLKISCKASGYSFTIYWIGWVRQMPGKGLEWMGIIYPGESETRYSPSFQGQVTISADKSISTAYLQWRSLKASDTAMYYCARGGPPGGVKLELTDYWGQGTLVTVSS
VL: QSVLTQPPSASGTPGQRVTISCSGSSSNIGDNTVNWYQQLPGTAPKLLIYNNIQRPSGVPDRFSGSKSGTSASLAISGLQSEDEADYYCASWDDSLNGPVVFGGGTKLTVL

target: T1, SARS-CoV-2 receptor-binding domain (RBD), S protein residues 319-539 (SARS-CoV-2, UniProt P0DTC2 319-539); test: ELISA on coated RBD
T1 construct: also called WT RBD; SARS-COV-2 RBD

B1 and B2 are within 1.5-fold of each other in EC50: 3.4 ng/mL for the first, 4.25 ng/mL for the second.

Compared with B3, B4 is 1.5-fold higher in EC50: 1.44 ng/mL for the first, 2.16 ng/mL for the second.

Going from B5 to B6, the EC50 falls from 4.07 ng/mL to 2.2 ng/mL (1.9-fold).

B7 and B8 are within 1.5-fold of each other in EC50: 2.53 ng/mL for the first, 2.9 ng/mL for the second.

B9 and B10 are within 1.5-fold of each other in EC50: 1.34 ng/mL for the first, 1.28 ng/mL for the second.

B11 and B12 are within 1.5-fold of each other in EC50: 1.39 ng/mL for the first, 1.44 ng/mL for the second.

Work on B13 yielded an EC50 of 3.71 ng/mL.

target: SARS-COV-2 RBD (SARS-COV-2, UniProt P0DTC2 319-539); test: ELISA, RBD coated on plate

Compared with B14, B15 is 3.9-fold lower in EC50: 5.88 ng/mL for the first, 1.51 ng/mL for the second.

target: T2, SARS-CoV-2 receptor-binding domain (WT RBD; S protein residues 319-539) (SARS-CoV-2, UniProt P0DTC2 319-539); test: BLI (Octet Red), IgG on protein A biosensor, WT RBD in solution, 1:1 fit
T2 construct: also called SARS-COV-2 RBD

First: B16
Second: B17
The Kd of the first is 2600-fold higher: 6.67 nM for the first, 0.0026 nM for the second. The second binds more tightly here.

Reference: patent publication US20240218057A1 (ROCKEFELLER UNIVERSITY, published 2024)
